Data on 3 molecules can be found in patent US20230151089A1 (SYNGLE THERAPEUTICS B V, published 2023).

Bounds are passed on as bounds.

In test [1] the target is T1, alpha-synuclein oligomers (UniProt P37840 1-140). In words: ELISA, alpha-Syn oligomer coated plate. For orientation: In an ELISA, binding on a coated surface is turned into a signal by an enzyme label.
Test [2] concerns the target T1, alpha-synuclein oligomers. In words: ELISA, read from the graph, reference alpha-Syn monomer.
The target of test [3] is T1, alpha-synuclein oligomers. Put plainly: ELISA on alpha-Syn oligomer coat; half of the highest OD 450 nm, drawn table.
The target of test [4] is T1, alpha-synuclein oligomers. In words: ELISA on alpha-Syn oligomer coat; row 'Titre (nM)' of the drawn table, concentration at DO (50%).
For test [5], the target named is T1, alpha-synuclein oligomers. Put plainly: ELISA, alpha-Syn oligomer coated plate, exp 1.
Description: (§1) Binding affinities (EC50 values) towards different antigens were determined from ELISA experiments using antigen coated plates as follows. Absorbance data was corrected for background absorption obtained by incubating antigen coated plates without adding primary antibody but keeping all other parameters constant. The background corrected absorbance values were then plotted against the log value of the antibody concentration.
(§2) The curve was fitted using the Graphpad Prism software using the common binding function Abs450=Max/(1+10\hat{ }(([Log EC50−Log Ab]))) where “Abs450” is the background corrected experimental absorption, “Max” is the absorption upon complete binding saturation, “Log EC50” is the log of the EC50 value and “Log Ab” is the log of the antibody concentration.
The target of test [6] is T1, alpha-synuclein oligomers. In words: ELISA, alpha-Syn oligomer coated plate, exp 2.
Description: as §1, §2
Test [7] has as its target T1, alpha-synuclein oligomers. Put plainly: ELISA, alpha-Syn oligomer coated plate, exp 3.
Description: as §1, §2
The target in test [8] is T1, alpha-synuclein oligomers. Put plainly: ELISA, ratio of EC50 values, reference alpha-Syn fibrils.
Description: as §1, §2
The target of test [9] is T1, alpha-synuclein oligomers. In words: ELISA, ratio of binding affinities, reference alpha-Syn fibrils (FIG. 3).
Description: as §1, §2
For test [10], the target named is T1, alpha-synuclein oligomers. In words: ELISA on antigen-coated plate, antibody titrated in tenfold steps, OD 450-630 nm.
Description: as §1, §2
The target of test [11] is T1, alpha-synuclein oligomers. Put plainly: ELISA on plates coated with ASO, ABO, AB fibrils, TAU oligo, TAU fibrils or no coat; antibody titrated, OD 450 nm.

B1: 26F1 TaFv (tandem single-chain variable fragment) (scFv)
scFv: DVQLQESGPGLVKPSQSLSLTCTVTGYSITSDYAWNWIRQFPGNKLEWLGYISYSGNTYYNPSLKSRISITRDTSKNQFFLHLNSVTTEDTATYYCAGNYVRWGQGTLVTVSAGGGGSGGGGSGGGGSDVVMTQTPLTLSVTIGQPASISCKSSQSLLYTNGKTYLNWLLQRPGQSPKRLIYLVSKLDSGVPDRFSGSGSGTDFTLKISRVEAEDLGVYYCLQSSHFPHTFGSGTKLEIKGGGGSDVQLQESGPGLVKPSQSLSLTCTVTGYSITSDYAWNWIRQFPGNKLEWLGYISYSGNTYYNPSLKSRISITRDTSKNQFFLHLNSVTTEDTATYYCAGNYVRWGQGTLVTVSAGGGGSGGGGSGGGGSDVVMTQTPLTLSVTIGQPASISCKSSQSLLYTNGKTYLNWLLQRPGQSPKRLIYLVSKLDSGVPDRFSGSGSGTDFTLKISRVEAEDLGVYYCLQSSHFPHTFGSGTKLEIK
The EC50 is the concentration at which the effect is half-maximal. A lower EC50 goes with an effect from little substance. As to B1, the EC50 was about 2 nM in [1] and 2.03 nM in test [4]. Besides, the “specificity ratio of alpha-Syn oligomer compared to alpha-Syn monomer” value in [2] was at least 100. Also, the “DO (50%)” value in test [3] was 0.904.

B2: 26F1 scFv (single-chain variable fragment) (scFv)
scFv: DVQLQESGPGLVKPSQSLSLTCTVTGYSITSDYAWNWIRQFPGNKLEWLGYISYSGNTYYNPSLKSRISITRDTSKNQFFLHLNSVTTEDTATYYCAGNYVRWGQGTLVTVSAGGGGSGGGGSGGGGSDVVMTQTPLTLSVTIGQPASISCKSSQSLLYTNGKTYLNWLLQRPGQSPKRLIYLVSKLDSGVPDRFSGSGSGTDFTLKISRVEAEDLGVYYCLQSSHFPHTFGSGTKLEIK
Regarding B2, the EC50 in test [1] was about 3.7 nM; in [4], 3.66 nM. Besides, in test [2], the “specificity ratio of alpha-Syn oligomer compared to alpha-Syn monomer” value is at least 100. The “DO (50%)” value in [3] was found to be 0.744.

B3: antibody 26F1 (antibody, mouse IgG2a, kappa, V domains shown)
VH: DVQLQESGPGLVKPSQSLSLTCTVTGYSITSDYAWNWIRQFPGNKLEWLGYISYSGNTYYNPSLKSRISITRDTSKNQFFLHLNSVTTEDTATYYCAGNYVRWGQGTLVTVSA
VL: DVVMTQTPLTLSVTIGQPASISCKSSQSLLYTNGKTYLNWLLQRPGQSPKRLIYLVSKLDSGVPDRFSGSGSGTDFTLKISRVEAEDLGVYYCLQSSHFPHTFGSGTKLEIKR
notes: Mouse monoclonal; Isotype is said to be preferably IgG2a kappa; also called 26F1 antibody; IgG 26F1
The term EC50 (read off the curve) denotes the midpoint of the concentration-response curve. With B3, the EC50 in test [5] stood at 0.039 nM; in test [6], 0.027 nM; in [7], 0.09 nM; in test [4], 0.0966 nM. Besides, the “fold preference over alpha-Syn fibrils” value in test [8] was 20 fold. Besides, the “binding affinity ratio alpha-Syn oligomers:alpha-Syn fibrils” value in test [9] is at least 20 fold. Besides, the “DO (50%)” value in test [3] amounted to 1.31. The “EC50 (read off the curve)” value in test [10] was about 0.2 nM; in [11], about 0.01 µg/mL.
